Test results published in PMC5643242 (The FEBS journal, 2017).
Where two headings read alike, the source gives them in different places.

Key:
Test in all cases: stopped-flow fluorescence
[1] = molecular target: T1, Cdc42 GTPase (residues 1-179), loaded with mantGppNHp (human, UniProt P60953 1-179)
[2] = molecular target: T1, Cdc42 GTPase (residues 1-179), loaded …; remark: listed apart in the source
[3] = molecular target: T1, Cdc42 GTPase (residues 1-179), loaded …; remark: listed apart in the source
[4] = molecular target: T1, Cdc42 GTPase (residues 1-179), loaded …; remark: listed apart in the source
[5] = molecular target: T1, Cdc42 GTPase (residues 1-179), loaded …; remark: listed apart in the source

T1 sequence (P60953 1-179): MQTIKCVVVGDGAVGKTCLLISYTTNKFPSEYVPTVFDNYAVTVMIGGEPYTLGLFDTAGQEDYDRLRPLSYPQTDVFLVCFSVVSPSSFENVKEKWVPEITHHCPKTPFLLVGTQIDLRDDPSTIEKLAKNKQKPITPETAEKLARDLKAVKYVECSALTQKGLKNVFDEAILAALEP

B1: Wiskott-Aldrich Syndrome protein (WASP) GTPase binding domain (GBD) construct, residues 154-322 (domain or fragment, human, UniProt P42768 154-322, looked up)
chain: GDRRQLPPPPTPANEERRGGLPPLPLHPGGDQGGPPVGPLSLGLATVDIQNPDITSSRYRGLPAPGPSPADKKRSGKKKISKADIGAPSGFKHVSHVGWDPQNGFDVNNLDPDLRSLFSRAGISEAQLTDAETSKLIYDFIEDQGGLEAVRQEMRRQEPLPPPPPPSRG
[1]
  kon: 1.75e+07 M⁻¹ s⁻¹
[2]
  fold decrease of ka at 2 M urea against no urea: 3.4 fold
[3]
  koff: 4.1 ± 1.7 s⁻¹
  kon: 1.2e+07 M⁻¹ s⁻¹
[4]
  kon: 1.63e+07 M⁻¹ s⁻¹
[5]
  kon: 2.07e+07 M⁻¹ s⁻¹
